This is an account of results in patent US20160122742A1 (published 2016).

In data set [1] the target is T1, Flag tagged ORC5 (UniProt O43913).
T1 sequence: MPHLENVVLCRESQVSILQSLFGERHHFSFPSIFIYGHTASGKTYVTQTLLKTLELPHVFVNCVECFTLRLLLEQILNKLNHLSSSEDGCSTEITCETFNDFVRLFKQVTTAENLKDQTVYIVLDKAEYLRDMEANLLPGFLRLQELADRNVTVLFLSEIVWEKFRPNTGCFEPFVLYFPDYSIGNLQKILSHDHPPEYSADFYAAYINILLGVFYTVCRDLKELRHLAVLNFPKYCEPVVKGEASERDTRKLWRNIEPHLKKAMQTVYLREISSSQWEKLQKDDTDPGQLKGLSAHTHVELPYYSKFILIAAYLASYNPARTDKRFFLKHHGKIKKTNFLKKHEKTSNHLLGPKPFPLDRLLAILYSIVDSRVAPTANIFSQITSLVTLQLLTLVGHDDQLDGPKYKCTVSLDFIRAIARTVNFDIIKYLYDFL

The target of data set [2] is T2, Flag tagged ORC5, O43913.
T2 chain: T1 sequence

For the molecule Xenopus Myc6-tagged Obi1 WT, the “ubiquitination of Flag-ORC5 (high-molecular weight ubiquitin adducts after anti-Flag IP)” value in data set [1] is “both human and xenopus Obi1, sharing 35% identity of their amino acid sequence, are able to ubiquitinate ORC5”.

B1: human Myc6-tagged Obi1 WT (protein)
chain: MAQTVQNVTLSLTLPITCHICLGKVRQPVICINNHVFCSICIDLWLKNNSQCPACRVPITPENPCKEIIGGTSESEPMLSHTVRKHLRKTRLELLHKEYEDEIDCLQKEVEELKSKNLSLESQIKTILDPLTLVQGNQNEDKHLVTDNPSKINPETVAEWKKKLRTANEIYEKVKDDVDKLKEANKKLKLENGGLVRENLRLKAEVDNRSPQKFGRFAVAALQSKVEQYERETNRLKKALERSDKYIEELESQVAQLKNSSEEKEAMNSICQTALSADGKGSKGSEEDVVSKNQGDSARKQPGSSTSSSSHLAKPSSSRLCDTSSARQESTSKADLNCSKNKDLYQEQVEVMLDVTDTSMDTYLEREWGNKPSDCVPYKDEELYDLPAPCTPLSLSCLQLSTPENRESSVVQAGGSKKHSNHLRKLVFDDFCDSSNVSNKDSSEDDISRSENEKKSECFSSPKTGFWDCCSTSYAQNLDFESSEGNTIANSVGEISSKLSEKSGLCLSKRLNSIRSFEMNRTRTSSEASMDAAYLDKISELDSMMSESDNSKSPCNNGFKSLDLDGLSKSSQGSEFLEEPDKLEEKTELNLSKGSLTNDQLENGSEWKPTSFFLLSPSDQEMNEDFSLHSSSCPVTNEIKPPSCLFQTEFSQGILLSSSHRLFEDQRFGSSLFKMSSEMHSLHNHLQSPWSTSFVPEKRNKNVNQSTKRKIQSSLSSASPSKATKS
As for B1, in data set [2], the “polyubiquitination of Flag-ORC5 (HA-ubiquitin adducts after anti-Flag IP)” value was “only the full length Obi1 protein is able to polyubiquitinate ORC5”; the “ubiquitination of Flag-ORC5 (high-molecular weight ubiquitin adducts after anti-Flag IP)” value is “both human and xenopus Obi1, sharing 35% identity of their amino acid sequence, are able to ubiquitinate ORC5”.
